In patent US11098109B2, “Single-chain variable fragment anti-CD133 antibodies and uses thereof” (REGENTS OF THE UNIVERSITY OF MINNESOTA, priority 2010, dated 2021):

T1: human prominin-1 (Homo sapiens, UniProt O43490, DEL381-611)
T1 construct: His-tag (6xHis) (N); made in house
T1 sequence (O43490 with tags, fused parts or gaps DEL381-611): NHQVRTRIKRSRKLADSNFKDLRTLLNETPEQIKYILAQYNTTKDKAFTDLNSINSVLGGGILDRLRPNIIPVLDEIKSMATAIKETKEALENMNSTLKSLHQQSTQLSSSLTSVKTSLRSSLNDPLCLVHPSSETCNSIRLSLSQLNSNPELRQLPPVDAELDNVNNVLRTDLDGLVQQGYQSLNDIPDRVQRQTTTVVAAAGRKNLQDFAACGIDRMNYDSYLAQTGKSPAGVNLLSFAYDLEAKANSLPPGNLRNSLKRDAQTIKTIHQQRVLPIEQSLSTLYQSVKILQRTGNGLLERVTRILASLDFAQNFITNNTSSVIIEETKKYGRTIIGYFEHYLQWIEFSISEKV

T2: CD133 (Homo sapiens, UniProt O43490)
T2 construct: endogenous in cells
T2 sequence (O43490 20-865): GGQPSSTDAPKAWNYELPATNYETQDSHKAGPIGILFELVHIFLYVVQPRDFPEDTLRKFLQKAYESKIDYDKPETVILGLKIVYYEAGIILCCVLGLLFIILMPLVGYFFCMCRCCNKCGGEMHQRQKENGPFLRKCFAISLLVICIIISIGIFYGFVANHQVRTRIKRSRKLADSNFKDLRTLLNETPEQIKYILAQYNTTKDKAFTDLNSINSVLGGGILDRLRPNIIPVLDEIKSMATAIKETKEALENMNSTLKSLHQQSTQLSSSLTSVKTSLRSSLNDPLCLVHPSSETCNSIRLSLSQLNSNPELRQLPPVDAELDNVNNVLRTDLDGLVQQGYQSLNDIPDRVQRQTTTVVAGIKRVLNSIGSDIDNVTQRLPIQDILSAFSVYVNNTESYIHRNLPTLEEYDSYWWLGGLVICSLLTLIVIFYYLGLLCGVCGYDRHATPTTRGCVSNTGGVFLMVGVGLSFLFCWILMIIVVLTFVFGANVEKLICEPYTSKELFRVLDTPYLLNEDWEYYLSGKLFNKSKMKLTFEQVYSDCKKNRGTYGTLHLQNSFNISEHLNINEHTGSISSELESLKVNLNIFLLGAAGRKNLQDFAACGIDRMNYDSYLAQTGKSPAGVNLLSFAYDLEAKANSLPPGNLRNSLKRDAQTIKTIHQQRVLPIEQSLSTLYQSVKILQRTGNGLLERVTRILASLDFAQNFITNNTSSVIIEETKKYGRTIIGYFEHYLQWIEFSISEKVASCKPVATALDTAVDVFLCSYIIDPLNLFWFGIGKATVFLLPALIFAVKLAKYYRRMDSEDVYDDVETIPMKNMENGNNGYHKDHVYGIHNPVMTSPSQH

B1: No. 11 scFv: soluble scFv of the Hybridoma Clone 7 antibody expressed in E. coli Top10F', SEQ ID NO:58; also used FITC-labeled (protein)
scFv: MDIVLSQSPAIMSASPGEKVTISCSASSSVSYMYWYQQKPGSSPKPWIYRTSNLASGVPARFSGSGSGTSYSLTISSMEAEDAATYYCQQYHSYPPTFGAGTKLELKSSGGGGSGGGGGGSSRSSLEVKLVESGPELKKPGETVKISCKASGYTFTDYSMHWVNQAPGKGLKWMGWINTETGEPSYADDFKGRFAFSLETSASTAYLQINNLKNEDTATYFCATDYGDYFDYWGQGTTLTVSS
modifications: optionally FITC-labeled; scFv polypeptide
B2: Hybridoma Clone 7: monoclonal antibody produced by Hybridoma Clone 7 that specifically binds to human CD133 (antibody, V domains shown)
VL: DIVLSQSPAIMSASPGEKVTISCSASSSVSYMYWYQQKPGSSPKPWIYRTSNLASGVPARFSGSGSGTSYSLTISSMEAEDAATYYCQQYHSYPPTFGAGTKLELK
VH: LEVKLVESGPELKKPGETVKISCKASGYTFTDYSMHWVNQAPGKGLKWMGWINTETGEPSYADDFKGRFAFSLETSASTAYLQINNLKNEDTATYFCATDYGDYFDYWGQGTTLTVSS

Columns and labels:
human prominin-1 = molecular target: T1, human prominin-1; test: Soluble scFv ELISA; type: binding; details: for binding specificity in soluble scFv ELISA: scFv from culture medium and periplasmic space
Procedure: A single colony was picked from No. 11 DNA transformed Top10F′ E. coli LB-Amp plate in and used to inoculate 25 mL LB medium with 100 μg/mL Amp. The culture was shaken at 37° C. at 250 rpm overnight.
The 25 mL overnight culture was diluted to 500 mL LB containing Amp and was shaken at 37° C. at 250 rpm for about two hours until the OD600 reached 0.5 to 0.7. IPTG was added to a final concentration of 1 mM. The culture was shaken at 30° C. overnight.
The culture was centrifuged at 5.000 g for 20 minutes at 4° C. The supernatant was kept for ELISA.
The cell pellet was completely suspended with 50 mL ice-cold PBS containing protease inhibitors (1 mM PMSF), and was sonicated on ice in short bursts. The power setting was 7 min, 40% power cycle 5 (HD2200 W/MS 73). Triton X-100 was added to the cell lysate to a final concentration of 1% and was mixed gently for 30 minutes at room temperature to aid in solubilization of the fusion protein.
The mixture was centrifuged at 15,000 rpm (Heraeus #3334 rotor) for 30 minutes at 4° C., and the supernatant was taken for ELISA.
The 2 supernatants were diluted (one is from overnight culture supernatant, and the other is from overnight culture pellet) containing soluble mouse scFv with equal volume of 5% milk and were incubated for 10 minutes at room temperature.
100 μL of the diluted scFv was added to each well (coated with human prominin-1), and incubated for one hour at 37° C.
The plate was washed five times.
50 μL per well of diluted secondary antibody conjugate at 1:2.000 (HOURP-conjugated anti-HA, diluted in 5% milk) was added, and incubated for one hour at 37° C.
50 μL/well TMB substrate was added for detection, and incubated for 30 minutes at room temperature.
Soluble scFv ELISA was performed to confirm the binding specificity to the target protein. Here, the expressed scFv was captured by human prominin-1 pre-coated plate, and the binding of the soluble scFv fused with HA tag was detected with anti-HA Ab-HOURP conjugate. […] Supernatant and pellet are test samples. PC means positive control, hybridoma secreted antibody (diluted at 1:2000) was used. BLK means blank.

CD133 = molecular target: T2, CD133; test: Tunicamycin glycosylation inhibition, Western blot of Caco-2 lysates; type: binding; details: Caco-2 cells treated with tunicamycin
Procedure: FIG. 3: Specificity of antibody produced by Hybridoma Clone 7. (A) Flow cytometry. Cells were incubated with primary antibody from either Hybridoma Clone 7 or 293C3 (Militenyi), followed by incubation with a labeled secondary antibody, and then analyzed by flow cytometry. Antibody from the newly developed anti-CD133 Hybridoma Clone 7 (open black histogram) stains very specifically the CD133-overexpressing cells, Caco-2 (iii), GBM6 (iv) and U87 cells transfected with CD133 (ii) but not CD133 negative U87 cells (i). Immunostaining using the monoclonal antibody produced by Hybridoma Clone 7 is compared to clone 293C3 (open grey histogram). Isotype control is represented by solid grey histogram. (B) Tunicamycin mediated glycosylation inhibition. Caco-2 cells were treated with increasing doses of tunicamycin (2.5, 5, 10, 20 μg/ml) for 3 days. DMSO treated cells or untreated cells served as controls. Cells were lysed and then analyzed by Western blotting using the monoclonal antibody produced by Hybridoma Clone 7 or GAPDH antibodies.
Caco-2 cells were seeded in 6-well plates and treated with 2.5 μg/ml-20 μg/ml tunicarmycin or vehicle (medium containing 0.1% DMSO) for three days. […] The lysates were centrifuged to remove cell debris and then analyzed by western blotting using either Hybridoma Clone 7 or anti-GAPDH (Sigma-Aldrich Corp., St. Louis, Mo.) as primary antibodies.

| Molecule | A450, Supernatant (human prominin-1; culture supernatant of Top10F' E. coli) | A450, Pellet (human prominin-1; lysate of culture pellet (periplasmic space)) | binding specificity in soluble scFv ELISA (human prominin-1) | binding specificity in soluble scFv ELISA (human prominin-1; listed as Recombinant Clone 11 scFv) | epitope recognized (glycosylated or not) (CD133) | A450, Positive Control (human prominin-1; hybridoma secreted antibody diluted at 1:2000) |
| --- | --- | --- | --- | --- | --- | --- |
| B1 | 0.9 | 1.4 | confirmed specific for human prominin-1 protein | specific for human CD133 | – | – |
| B2 | – | – | – | – | specifically binds to an non-glycosylated epitope | 1.9 |
